For orientation: Kd means a measure of binding affinity in units of concentration. A high value points to weaker binding.

Data on 2 molecules can be found in paper PMC3085965 (Archives of biochemistry and biophysics, 2011).

This assay concerns the target Thrombospondin-1 (human, purified from platelets) (human, UniProt P07996 19-1170, 125I label (where used as 125I-TSP1)). Description: radioligand binding.

Chain of Thrombospondin-1 (human, purified from platelets) (P07996 19-1170): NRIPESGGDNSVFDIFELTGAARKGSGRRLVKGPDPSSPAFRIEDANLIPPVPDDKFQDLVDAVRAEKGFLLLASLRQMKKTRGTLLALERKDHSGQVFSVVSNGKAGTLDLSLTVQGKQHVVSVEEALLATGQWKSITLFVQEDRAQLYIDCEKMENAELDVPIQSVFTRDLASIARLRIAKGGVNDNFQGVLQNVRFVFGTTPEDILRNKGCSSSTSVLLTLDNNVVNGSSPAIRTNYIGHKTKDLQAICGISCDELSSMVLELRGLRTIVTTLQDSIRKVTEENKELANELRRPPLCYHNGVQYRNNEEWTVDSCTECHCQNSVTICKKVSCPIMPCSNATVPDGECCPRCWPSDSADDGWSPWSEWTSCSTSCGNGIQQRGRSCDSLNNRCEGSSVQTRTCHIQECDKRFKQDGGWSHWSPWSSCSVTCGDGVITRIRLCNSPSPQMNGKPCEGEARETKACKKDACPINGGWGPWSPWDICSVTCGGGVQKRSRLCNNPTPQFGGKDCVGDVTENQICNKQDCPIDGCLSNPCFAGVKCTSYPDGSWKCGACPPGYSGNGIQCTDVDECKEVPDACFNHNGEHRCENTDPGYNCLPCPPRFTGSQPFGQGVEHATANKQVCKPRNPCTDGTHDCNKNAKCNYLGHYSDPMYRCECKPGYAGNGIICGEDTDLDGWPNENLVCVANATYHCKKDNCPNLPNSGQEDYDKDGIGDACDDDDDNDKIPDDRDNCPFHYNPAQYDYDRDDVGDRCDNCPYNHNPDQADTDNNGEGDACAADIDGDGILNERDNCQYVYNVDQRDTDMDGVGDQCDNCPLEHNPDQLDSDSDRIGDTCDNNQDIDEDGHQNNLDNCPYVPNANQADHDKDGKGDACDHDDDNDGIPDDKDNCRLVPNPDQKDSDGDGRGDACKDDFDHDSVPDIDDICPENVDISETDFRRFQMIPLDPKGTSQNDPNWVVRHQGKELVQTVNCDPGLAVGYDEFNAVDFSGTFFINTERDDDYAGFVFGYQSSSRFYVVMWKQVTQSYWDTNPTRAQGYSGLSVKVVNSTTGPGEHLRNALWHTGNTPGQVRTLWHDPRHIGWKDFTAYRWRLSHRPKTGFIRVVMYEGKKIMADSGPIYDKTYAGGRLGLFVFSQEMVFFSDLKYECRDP

B1: full-length recombinant human sFRP-2 (natural protein, UniProt Q96HF1 25-295, looked up)
chain: LFLFGQPDFSYKRSNCKPIPANLQLCHGIEYQNMRLPNLLGHETMKEVLEQAGAWIPLVMKQCHPDTKKFLCSLFAPVCLDDLDETIQPCHSLCVQVKDRCAPVMSAFGFPWPDMLECDRFPQDNDLCIPLASSDHLLPATEEAPKVCEACKNKNDDDNDIMETLCKNDFALKIKVKEITYINRDTKIILETKSKTIYKLNGVSERDLKKSVLWLKDSLQCTCEEMNDINAPYLVMGQKQGGELVITSVKRWQKGQREFKRISRSIRKLQC
For the molecule B1, binding was put at a Kd of 95 nM.

B2: full-length recombinant human sFRP-1 (natural protein, UniProt Q8N474 32-314, looked up)
chain: SEYDYVSFQSDIGPYQSGRFYTKPPQCVDIPADLRLCHNVGYKKMVLPNLLEHETMAEVKQQASSWVPLLNKNCHAGTQVFLCSLFAPVCLDRPIYPCRWLCEAVRDSCEPVMQFFGFYWPEMLKCDKFPEGDVCIAMTPPNATEASKPQGTTVCPPCDNELKSEAIIEHLCASEFALRMKIKEVKKENGDKKIVPKKKKPLKLGPIKKKDLKKLVLYLKNGADCPCHQLDNLSHHFLIMGRKVKSQYLLTAIHKWDKKNKEFKNFMKKMKNHECPTFQSVFK
The molecule B2 gave a dissociation constant (Kd) of 48 nM.
